# T1: Human VSIG4-L-CHO (human VSIG4 long isoform on CHO-K1 cells) (human, UniProt Q9Y279 20-399)
# T1 construct: also called hVSIG4-L (flow cytometry)
# T1 sequence: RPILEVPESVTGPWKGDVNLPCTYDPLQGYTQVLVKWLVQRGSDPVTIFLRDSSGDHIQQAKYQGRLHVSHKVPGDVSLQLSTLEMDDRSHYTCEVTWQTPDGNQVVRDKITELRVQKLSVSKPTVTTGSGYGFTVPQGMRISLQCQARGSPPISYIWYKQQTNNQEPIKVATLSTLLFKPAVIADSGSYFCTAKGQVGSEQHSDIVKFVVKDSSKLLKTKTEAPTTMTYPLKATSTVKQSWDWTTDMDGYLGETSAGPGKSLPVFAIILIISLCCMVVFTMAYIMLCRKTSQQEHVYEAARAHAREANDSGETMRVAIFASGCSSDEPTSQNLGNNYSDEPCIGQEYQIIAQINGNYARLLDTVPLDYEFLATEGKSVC
# T2: Cynomolgus Monkey VSIG4-L-His (cynomolgus monkey)
# T2 construct: ECD with His tag; also called cyVSIG4-L; cyno VSIG4-L-His
# T2 chain: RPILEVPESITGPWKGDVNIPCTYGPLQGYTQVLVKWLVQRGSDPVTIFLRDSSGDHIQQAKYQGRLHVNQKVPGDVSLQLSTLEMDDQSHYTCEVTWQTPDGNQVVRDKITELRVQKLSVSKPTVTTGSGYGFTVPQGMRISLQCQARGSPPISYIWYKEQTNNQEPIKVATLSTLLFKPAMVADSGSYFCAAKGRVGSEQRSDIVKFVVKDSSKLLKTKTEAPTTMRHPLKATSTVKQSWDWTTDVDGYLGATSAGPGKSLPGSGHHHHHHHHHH
# T3: Human VSIG4-L-His (human, UniProt Q9Y279 20-283)
# T3 construct: long isoform ECD with His tag; also called hVSIG4-L
# T3 sequence: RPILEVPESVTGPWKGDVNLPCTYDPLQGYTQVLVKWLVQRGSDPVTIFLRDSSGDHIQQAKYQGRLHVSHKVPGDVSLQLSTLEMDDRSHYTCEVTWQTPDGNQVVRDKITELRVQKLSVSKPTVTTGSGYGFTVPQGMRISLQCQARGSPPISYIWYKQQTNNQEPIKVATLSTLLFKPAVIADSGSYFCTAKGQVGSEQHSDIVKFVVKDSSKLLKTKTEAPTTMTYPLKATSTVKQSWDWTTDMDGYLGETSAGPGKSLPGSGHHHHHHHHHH
# T4: Human VSIG4-S-His (human, UniProt Q9Y279 20-283)
# T4 construct: short isoform ECD with His tag; also called hVSIG4-S; VISG4-S-His
# T4 sequence: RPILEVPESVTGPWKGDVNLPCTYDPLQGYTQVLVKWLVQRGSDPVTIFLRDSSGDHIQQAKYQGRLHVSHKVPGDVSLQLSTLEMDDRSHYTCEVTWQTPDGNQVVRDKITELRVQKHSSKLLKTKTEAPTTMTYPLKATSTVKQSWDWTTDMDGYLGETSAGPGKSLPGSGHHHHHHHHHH
# T5: Mouse VSIG4-His (mouse)
# T5 construct: ECD with His tag; also called mVSIG4
# T5 chain: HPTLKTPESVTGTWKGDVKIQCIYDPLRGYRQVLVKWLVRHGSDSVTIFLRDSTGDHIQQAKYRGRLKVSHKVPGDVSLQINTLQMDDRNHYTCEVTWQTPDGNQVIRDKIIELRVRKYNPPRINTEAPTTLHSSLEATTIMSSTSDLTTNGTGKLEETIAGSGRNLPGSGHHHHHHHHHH
# B1: 15A06 mouse/human chimeric IgG4 (S228P) kappa (antibody, V domains shown)
# VH: QVQMKQSGPSLVRPSQTLSLTCSVTGDSITSGYWNWIRKFPGDKFEYLGYISYSGFTYYNPSLKSRVSITRDTSKNQYYLQLHSVTTEDTATYYCASSKYGSSLGFPYWGQGTLVTVSA
# VL: DVVMTQTPLSLPVSLGDQASISCRSSQSLVHSNGNTYLHWYLQKPGQSPKLLIYKVSNRFSGVPDRFSGSGSGTDFTLKISRVEAEDLGVYFCSQSTHVPFTFGSGTKLEIKR
# B2: 16G02 mouse/human chimeric IgG4 (S228P) kappa (antibody, V domains shown)
# VH: QVQLQQSGAELMKPGASVKISCKATGYTFSSYWIEWVKQRPGHGLEWIGEILPGSSTTNYNEKFKGKATFTADTSSNTAYMQLSSLTSEDSAVYYCAREDHFITTARYAMDYWGQGTSVTVSS
# VL: DIVLTQSPASLAMSVGQKVTMSCKSSQSLLNSSNQKNYLAWYQQKPGQSPKLLLYFASTRESGVPDRFIGSGSGTDFTLTISSVQAEDLADYFCQQHYSNPLTFGAGTKLELKR
# Key:
# [1] = target: T1, Human VSIG4-L-CHO (human VSIG4 long …); experiment: flow cytometry (FJB), 200 nM mAb, huVSIG4-L CHO-K1 cells
# [2] = target: T6, Human VSIG4-L-Fc (human); experiment: BLI binning on hVSIG4-L-Fc, competitor 14C05 first;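 further: normalized to binding of second antibody without first competitor antibody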
# T6 construct: also called hVSIG4-L-Fc; hVSIG4-L
# Target sequence in this assay (chain, as listed by the source limits assumed): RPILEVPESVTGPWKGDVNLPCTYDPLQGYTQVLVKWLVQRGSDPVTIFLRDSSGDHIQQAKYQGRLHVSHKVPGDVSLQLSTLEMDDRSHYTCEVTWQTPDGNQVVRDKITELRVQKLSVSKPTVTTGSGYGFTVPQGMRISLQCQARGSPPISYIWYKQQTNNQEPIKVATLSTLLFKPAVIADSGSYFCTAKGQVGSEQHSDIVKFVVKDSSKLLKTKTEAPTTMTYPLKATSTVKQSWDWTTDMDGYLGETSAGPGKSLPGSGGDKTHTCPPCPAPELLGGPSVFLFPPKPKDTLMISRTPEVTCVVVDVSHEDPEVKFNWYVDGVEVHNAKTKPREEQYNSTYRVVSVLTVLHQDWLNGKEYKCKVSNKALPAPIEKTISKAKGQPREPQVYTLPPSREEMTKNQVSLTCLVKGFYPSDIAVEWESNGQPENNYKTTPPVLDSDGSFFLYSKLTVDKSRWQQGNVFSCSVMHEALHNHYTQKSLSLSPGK
# [3] = target: T6, Human VSIG4-L-Fc; experiment: BLI binning on hVSIG4-L-Fc, competitor 12A08 first;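 further: normalized to binding of second antibody without first competitor antibody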
# [4] = target: T6, Human VSIG4-L-Fc; experiment: BLI binning on hVSIG4-L-Fc, competitor 16E03 first;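 further: normalized to binding of second antibody without first competitor antibody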
# [5] = target: T6, Human VSIG4-L-Fc; experiment: BLI binning on hVSIG4-L-Fc, competitor 13H11 first;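 further: normalized to binding of second antibody without first competitor antibody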
# Method: (§1) Epitopic diversity of functional antibodies was further assessed by antibody cross-blocking experiments, performed on a ForteBio Octet® Red384 system. […] All assay steps occurred at 30° C. with an acquisition rate of 5.0 Hz.
# (§2) Binning results were calculated using ForteBio Data Analysis HT software. Antibody “a” and antibody “b” steps were defined, and the maximum binding calculation was averaged at the last 10% of the step duration. Once the matrix was generated, the antibody “b” binding signal in the absence of any antibody “a” was used to normalize the maximum binding of the competitor antibodies. Hierarchical clustering was set with a similarity metric of Pearson and Lingang Criteria by Mean, and the normalized maximum binding nm shift is reported in Table 9 below.
# [6] = target: T1, Human VSIG4-L-CHO (human VSIG4 long …); experiment: flow cytometry, CHO-K1 cells expressing hVSIG4-L
# Method: Three-fold serial dilution of each antibody starting at 200 nM were prepared in assay buffer (0.5% of heat inactivated Fetal bovine serum with 1:1000 Ethylenediaminetetraacetic acid in PBS). […] As a control for specificity, an irrelevant antibody was used. Binding detection was assessed using a goat anti-Human IgG (Fc specific), FITC conjugated polyclonal detection antibody (Sigma Aldrich, St. Louis, MO) and by acquisition of 10,000 cells per sample. Fluorescence was measured on an Attune™ NxT (Thermo Fisher Scientific, Waltham, MA).
# [7] = target: T6, Human VSIG4-L-Fc; experiment: ligand competition ELISA (FJB), blocked ligand C3b, 200 nM mAb
# [8] = target: T2, Cynomolgus Monkey VSIG4-L-His; experiment: SPR (FJB)
# [9] = target: T3, Human VSIG4-L-His; experiment: SPR (FJB)
# [10] = target: T4, Human VSIG4-S-His; experiment: BLI (Octet), IgG on AHC sensor
# Method: The binding affinity of chimeric antibodies was determined by biolayer interferometry (BLI), using a ForteBio Octet® Red384 system. […] Biosensors were rehydrated prior to the assay in kinetics buffer for 10 minutes and then equilibrated in kinetics buffer for 60 seconds. Antibody was then immobilized for 300 seconds followed by a 120 second baseline wash in fresh kinetics buffer, 300 second analyte association, and 300 second dissociation in the same buffer wells as the baseline wash step. All assay steps occurred at 30° C. with an acquisition rate of 5.0 Hz
# [11] = target: T2, Cynomolgus Monkey VSIG4-L-His; experiment: ELISA, IgG 50 nM on coated antigen; ELISA, bivalent IgG on plate-coated cyVSIG4-L (avid format)
# Method: (§3) Coated microplates were blocked with dried skimmed milk at 4% in PBS. Coated proteins were then incubated with each purified antibody at a concentration of 50 nM for 1 h to allow the binding to the proteins. Binding detection was measured using a goat anti-huIgG monoclonal detection antibody, HRP conjugated (Jackson Immune Research, West Gove, PA). As a control for specificity, an irrelevant antibody and protein were used. OD at 450 nm was determined using a standard absorbance microplate reader.
# [12] = target: T3, Human VSIG4-L-His; experiment: BLI (Octet), IgG on AHC sensor, antigen 100 nM
# [13] = target: T6, Human VSIG4-L-Fc; experiment: BLI binning on hVSIG4-L-Fc, competitor 12A12 first;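 further: normalized to binding of second antibody without first competitor antibody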
# Method: as §1, §2
# [14] = target: T1, Human VSIG4-L-CHO (human VSIG4 long …); experiment: flow cytometry (FJB), 200 nM mAb, huVSIG4-L CHO-K1 over parental CHO-K1
# [15] = target: T6, Human VSIG4-L-Fc; experiment: BLI binning on hVSIG4-L-Fc, competitor 14D12 first;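 further: normalized to binding of second antibody without first competitor antibody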
# Method: as §1, §2
# [16] = target: T7, Human VSIG4-S-Fc (human); experiment: ELISA, IgG 50 nM on coated antigen;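 further: Mouse-human chimeric IgG4 antibodies incubated 1 h on plate-coated VSIG4 proteins, bound IgG detected with HRP-labelled anti-human IgG, irrelevant antibody and protein as specificity controls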
# T7 construct: short isoform ECD fused to human Fc1; also called hVSIG4-S
# T7 sequence (chain, as listed by the source limits assumed): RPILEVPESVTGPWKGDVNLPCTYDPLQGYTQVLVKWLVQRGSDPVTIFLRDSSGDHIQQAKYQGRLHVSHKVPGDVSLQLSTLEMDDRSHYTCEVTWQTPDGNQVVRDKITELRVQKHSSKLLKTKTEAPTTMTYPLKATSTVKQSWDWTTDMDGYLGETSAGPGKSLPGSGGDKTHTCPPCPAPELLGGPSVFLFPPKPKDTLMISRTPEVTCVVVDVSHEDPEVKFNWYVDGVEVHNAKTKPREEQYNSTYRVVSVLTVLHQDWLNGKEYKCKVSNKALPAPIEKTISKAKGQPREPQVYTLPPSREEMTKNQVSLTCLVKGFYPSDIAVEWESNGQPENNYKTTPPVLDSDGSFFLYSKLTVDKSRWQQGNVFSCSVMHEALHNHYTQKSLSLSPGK
# Method: (§4) The binding characteristics of selected antibodies identified in the phage display selections and reformatted as mouse-human chimeric IgG4 antibodies was assessed by ELISA for their ability to bind plate-bound human VSIG4-L, human VSIG4-S, cynomolgus monkey VSIG4, and mouse VSIG4 (Table 7). Antibodies were also assessed by ELISA for specificity to human VSIG4 compared to related VSIG4 B7 family members, including human B7-H1, B7-H2, B7-H3, B7-H4, B7-DC, B7-1, and B7-2 (Table 8).
# as §3
# [17] = target: T5, Mouse VSIG4-His; experiment: ELISA, IgG 50 nM on coated antigen;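 further: Mouse-human chimeric IgG4 antibodies incubated 1 h on plate-coated VSIG4 proteins, bound IgG detected with HRP-labelled anti-human IgG, irrelevant antibody and protein as specificity controls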
# Method: as §4, §3
# [18] = target: T6, Human VSIG4-L-Fc; experiment: ELISA, IgG 50 nM on coated antigen;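 further: Mouse-human chimeric IgG4 antibodies incubated 1 h on plate-coated VSIG4 proteins, bound IgG detected with HRP-labelled anti-human IgG, irrelevant antibody and protein as specificity controls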
# Method: as §4, §3
# [19] = target: T6, Human VSIG4-L-Fc; experiment: BLI binning on hVSIG4-L-Fc, competitor 15C04 first;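 further: normalized to binding of second antibody without first competitor antibody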
# Method: as §1, §2
# [20] = target: T6, Human VSIG4-L-Fc; experiment: ligand competition ELISA (FJB), blocked ligand iC3b, 200 nM mAb
# [21] = target: T6, Human VSIG4-L-Fc; experiment: BLI binning on hVSIG4-L-Fc, competitor 15A06 first;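 further: normalized to binding of second antibody without first competitor antibody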
# [22] = target: T6, Human VSIG4-L-Fc; experiment: BLI binning on hVSIG4-L-Fc, competitor 16E10 first;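 further: normalized to binding of second antibody without first competitor antibody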
# [23] = target: T6, Human VSIG4-L-Fc; experiment: BLI binning on hVSIG4-L-Fc, competitor 15C03 first;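 further: normalized to binding of second antibody without first competitor antibody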
# Method: as §1, §2
# [24] = target: T5, Mouse VSIG4-His; experiment: ELISA (FJB), muVSIG4-His
# [25] = target: T6, Human VSIG4-L-Fc; experiment: ligand competition ELISA (FJB), blocked ligand iC3b
# [26] = target: T6, Human VSIG4-L-Fc; experiment: BLI cross-blocking on hVSIG4-L-Fc, competitor 12A12 first
# [27] = target: T6, Human VSIG4-L-Fc; experiment: BLI cross-blocking on hVSIG4-L-Fc, competitor 16G02 first
# [28] = target: T6, Human VSIG4-L-Fc; experiment: ligand competition ELISA (FJB), blocked ligand C3b
# [29] = target: T6, Human VSIG4-L-Fc; experiment: BLI cross-blocking on hVSIG4-L-Fc, competitor 14C05 first
# [30] = target: T1, Human VSIG4-L-CHO (human VSIG4 long …); experiment: flow cytometry (FJB), huVSIG4-L CHO-K1 cells
binder,measurement,setting,value
B1,Binding (200 nM) MFI,[1],23900 MFI
same,normalized maximum binding nm shift,[2],0.8 normalized
same,normalized maximum binding nm shift,[3],0.88 normalized
same,normalized maximum binding nm shift,[4],0.73 normalized
same,normalized maximum binding nm shift,[5],0.53 normalized
same,EC50,[6],2.4 nM
same,% Block C3b (200 nM mAb),[7],-24%
same,Kd,[8],14.3 nM
same,Kd,[9],15 nM
same,binding result,[10],no binding (tested: 100 nM)
same,ELISA OD450,[11],4.35 OD450
same,Kd,[12],28.5 nM
same,normalized maximum binding nm shift,[13],0.91 normalized
same,Binding (200 nM) Fold-Over-Parental,[14],63 fold
same,normalized maximum binding nm shift,[15],0.79 normalized
same,ELISA OD450,[16],0.24 OD450
same,ELISA OD450,[17],0.067 OD450
same,ELISA OD450,[18],4.38 OD450
same,normalized maximum binding nm shift,[19],0.15 normalized
same,% Block iC3b (200 nM mAb),[20],2%
same,normalized maximum binding nm shift,[21],0.12 normalized
same,normalized maximum binding nm shift,[22],0.95 normalized
same,normalized maximum binding nm shift,[23],0.79 normalized
B2,Binding (200 nM) MFI,[1],38100 MFI
same,binding result,[24],no binding (tested: 50 nM)
same,IC50,[25],1 nM
same,binding signal (nm shift),[26],0.1 nm
same,binding signal (nm shift),[27],0.11 nm
same,% Block C3b (200 nM mAb),[7],96%
same,Kd,[8],1.3 nM
same,Kd,[9],2.5 nM
same,Binding (200 nM) Fold-Over-Parental,[14],130 fold
same,% Block iC3b (200 nM mAb),[20],98%
same,IC50,[28],1.1 nM
same,binding signal (nm shift),[29],0.11 nm
same,EC50,[30],5.2 nM
